Experimental data published in patent US20240052042A1 (Novartis, published 2024).
Numbering of substitutions follows the chain as printed. Like-named read-outs stand apart in the source and are kept apart here. One block for each binder: values may come before it.

Columns and labels:
[1] = target: T1, human NPR1 on CHO-K1 cells in the presence of ANP (human, UniProt P01160 124-151); assay: flow cytometry (FL2-H) on hNPR1 CHO-K1 cells with saturating ANP, IgG titrated; control parental CHO-K1 [Cont.), panel XX12]
T1 construct: also called hNPR1 CHO K1 + 100 nM ANP
T1 sequence: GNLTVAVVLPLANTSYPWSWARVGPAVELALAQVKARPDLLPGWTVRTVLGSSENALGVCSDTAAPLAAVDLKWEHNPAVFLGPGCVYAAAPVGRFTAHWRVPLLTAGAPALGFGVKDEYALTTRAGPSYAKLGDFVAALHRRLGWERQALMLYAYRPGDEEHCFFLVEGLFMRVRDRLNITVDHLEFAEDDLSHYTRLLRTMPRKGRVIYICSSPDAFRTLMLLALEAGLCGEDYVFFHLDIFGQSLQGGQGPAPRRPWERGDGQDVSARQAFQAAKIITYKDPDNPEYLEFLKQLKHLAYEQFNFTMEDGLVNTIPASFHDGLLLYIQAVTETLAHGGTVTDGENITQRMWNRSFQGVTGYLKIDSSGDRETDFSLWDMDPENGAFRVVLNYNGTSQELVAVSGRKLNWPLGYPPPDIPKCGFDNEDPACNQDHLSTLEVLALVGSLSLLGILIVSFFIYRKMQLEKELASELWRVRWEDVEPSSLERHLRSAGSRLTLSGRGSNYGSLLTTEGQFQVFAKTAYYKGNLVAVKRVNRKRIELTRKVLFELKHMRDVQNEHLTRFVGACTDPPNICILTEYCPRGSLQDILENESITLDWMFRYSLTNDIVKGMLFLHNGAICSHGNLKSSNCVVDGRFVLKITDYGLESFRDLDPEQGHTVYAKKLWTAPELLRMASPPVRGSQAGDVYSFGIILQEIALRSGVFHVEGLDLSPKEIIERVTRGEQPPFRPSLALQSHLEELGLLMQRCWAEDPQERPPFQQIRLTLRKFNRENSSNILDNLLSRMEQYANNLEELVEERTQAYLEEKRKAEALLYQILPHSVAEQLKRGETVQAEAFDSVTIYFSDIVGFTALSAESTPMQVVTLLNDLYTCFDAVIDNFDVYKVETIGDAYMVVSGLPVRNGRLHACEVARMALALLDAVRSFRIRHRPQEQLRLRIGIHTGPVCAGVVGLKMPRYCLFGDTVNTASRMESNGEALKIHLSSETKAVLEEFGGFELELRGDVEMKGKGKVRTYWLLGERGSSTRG
T1 sequence (peptide): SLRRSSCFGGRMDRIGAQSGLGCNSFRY

hNPR1-ANP complex [2] = target: T2, hNPR1-ANP complex (human, UniProt P01160 124-151, limits assumed); assay: FRET ANP competition assay, IgG titrated on hNPR1 with Cy5-labeled ANP; negative values mean more ANP signal [Cont.), panel XX12]
T2 construct: hNPR1 antigen in the presence of ANP; also called hNPR1 + 100 nM ANP
T2 sequence: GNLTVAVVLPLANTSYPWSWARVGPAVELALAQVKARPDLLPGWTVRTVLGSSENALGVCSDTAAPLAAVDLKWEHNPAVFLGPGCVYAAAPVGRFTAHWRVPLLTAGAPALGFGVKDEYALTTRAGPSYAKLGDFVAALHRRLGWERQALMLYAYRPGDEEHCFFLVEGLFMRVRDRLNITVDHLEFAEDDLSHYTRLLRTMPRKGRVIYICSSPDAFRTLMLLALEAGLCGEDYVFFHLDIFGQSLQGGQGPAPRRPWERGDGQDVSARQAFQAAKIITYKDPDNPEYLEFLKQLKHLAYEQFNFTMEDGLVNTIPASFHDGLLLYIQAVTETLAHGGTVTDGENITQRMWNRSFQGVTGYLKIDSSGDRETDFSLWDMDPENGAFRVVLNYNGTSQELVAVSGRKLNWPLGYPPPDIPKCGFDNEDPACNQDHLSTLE
T2 sequence (peptide): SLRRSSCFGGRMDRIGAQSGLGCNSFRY
Protocol: The same 31 IgGs were tested for ANP competition using a Fluorescence Resonance Energy Transfer (FRET)-based assay in which the NPR1-specific antibodies competed with ANP for binding to NPR1. In this FRET based assay (see FIG. 3), Eu-labeled Streptavidin (for measurement of IgGs) or Eu-labeled anti-hFc antibody (for measurement of FabCys) was used as an energy donor, while Cy5-labeled ANP was used as an acceptor (for all measurements). The resulting fluorescent signal was decreased by ANP-competitive antibodies. The assay was performed as follows: antibodies were mixed with NPR1 and incubated for 5 minutes at room temperature. After addition of the Eu-labeled donor and incubation for 30 minutes at room temperature, the Cy5-ANP solution was added. After a further 60-minute incubation, readout was performed using a TECAN Infinite M1000 Pro using an excitation wavelength of 317 nm and an emission wavelength of 665 nm. Percentage of ANP competition was calculated according to the following formulae: […]

[3] = target: T1, human NPR1 on CHO-K1 cells in the …; assay: flow cytometry (FL2-H) on hNPR1 CHO-K1 cells with saturating ANP, IgG titrated; control parental CHO-K1 [panel YY02]
[4] = target: T3, human NPR1 on CHO-K1 cells (human, UniProt P16066 33-1061); assay: flow cytometry (FL2-H) on hNPR1 CHO-K1 cells without ANP, IgG titrated; control parental CHO-K1 [panel YY02]
T3 construct: also called hNPR1 CHO K1; human NPR1 expressing CHO-K1 cells
T3 sequence: T1 sequence

rNPR1-ANP complex [5] = target: T4, rNPR1-ANP complex (rat, UniProt P01160 124-151 (human entry), limits assumed); assay: ELISA, IgG titrated on coated antigen with ANP (250 fold molar excess), fluorescence [Cont.]
T4 construct: rNPR1 antigen in the presence of ANP; also called rNPR1 + 100 nM ANP
T4 sequence: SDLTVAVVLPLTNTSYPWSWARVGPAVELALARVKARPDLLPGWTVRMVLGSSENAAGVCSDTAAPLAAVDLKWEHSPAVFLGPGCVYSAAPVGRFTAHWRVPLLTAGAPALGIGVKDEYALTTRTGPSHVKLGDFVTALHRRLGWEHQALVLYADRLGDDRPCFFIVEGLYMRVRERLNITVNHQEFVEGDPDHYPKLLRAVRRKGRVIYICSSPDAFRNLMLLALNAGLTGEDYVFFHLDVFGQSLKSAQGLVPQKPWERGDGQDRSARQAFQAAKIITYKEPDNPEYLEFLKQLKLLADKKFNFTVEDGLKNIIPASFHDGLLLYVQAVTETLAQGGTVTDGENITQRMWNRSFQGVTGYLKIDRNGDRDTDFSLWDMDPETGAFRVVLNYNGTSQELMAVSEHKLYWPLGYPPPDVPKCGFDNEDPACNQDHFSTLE
T4 sequence (peptide): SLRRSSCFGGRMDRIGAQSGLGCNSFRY

hNPR1-ANP complex [6] = target: T2, hNPR1-ANP complex; assay: as above
rNPR1-ANP complex [7] = target: T4, rNPR1-ANP complex; assay: as above; remark: listed apart in the source
hNPR1-ANP complex [8] = target: T2, hNPR1-ANP complex; assay: as above; remark: listed apart in the source
[9] = target: T5, human Natriuretic Peptide Receptor 1 (hNPR1) (human, UniProt P16066 33-473, limits assumed); assay: ELISA, IgG titrated on coated antigen, fluorescence [Cont.]
T5 construct: pannings used NPR1-hFc; also called NPR1-hFc
T5 sequence: T2 sequence

[10] = target: T1, human NPR1 on CHO-K1 cells in the …; assay: flow cytometry (FL2-H) on hNPR1 CHO-K1 cells with saturating ANP, IgG titrated; control parental CHO-K1 [panel YY03]
[11] = target: T1, human NPR1 on CHO-K1 cells in the …; assay: flow cytometry, hNPR1 CHO-K1 cells, IgG
[12] = target: T3, human NPR1 on CHO-K1 cells; assay: flow cytometry, hNPR1 CHO-K1 cells, IgG
[13] = target: T1, human NPR1 on CHO-K1 cells in the …; assay: flow cytometry (FL2-H) on hNPR1 CHO-K1 cells with saturating ANP, IgG titrated; control parental CHO-K1 [panel YY01]
rNPR1-ANP complex [14] = target: T4, rNPR1-ANP complex; assay: ELISA, 1 µM IgG; design: unit not given here
hNPR1-ANP complex [15] = target: T2, hNPR1-ANP complex; assay: ELISA, 1 µM IgG; design: unit not given here
[16] = target: T5, human Natriuretic Peptide Receptor 1 …; assay: ELISA, 1 µM IgG; design: unit not given here
[17] = target: T3, human NPR1 on CHO-K1 cells; assay: cell-based or functional assay
[18] = target: T1, human NPR1 on CHO-K1 cells in the …; assay: flow cytometry (FL2-H) on hNPR1 CHO-K1 cells with saturating ANP, IgG titrated; control parental CHO-K1 [Cont.), panel YY04]

EC50 (read off the curve) [1]: ~0.8 nM
EC50 (read off the curve) (hNPR1-ANP complex [2]): ~0.4 nM
B1: XX12 (IgG format) (antibody, V domains shown)
VH: QVQLLESGGGLVQPGGSLRLSCAASGFTFSSYWMNWVRQAPGKGLEWVSAISSDGSYTYYADSVKGRFTISRDNSKNTLYLQMNSLRAEDTAVYYCARDRYSMIYSYGAGAFDYWGQGTLVTVSS
VL: DIQMTQSPSSLSASVGDRVTITCRASQGISSYLAWYQQKPGKAPKLLIYTASTLQSGVPSRFSGSGSGTDFTLTISSLQPEDFATYYCQQIWMAPRTFGQGTKVEIK

EC50 (read off the curve) [3]: ~1 nM
EC50 (read off the curve) [4]: ~200 nM
EC50 (read off the curve) (rNPR1-ANP complex [5]): ~0.3 nM
EC50 (read off the curve) (hNPR1-ANP complex [6]): ~0.8 nM
B2: YY02 (IgG format) (antibody, V domains shown)
VH: EVQLVESGGGLVKPGGSLRLSCAASGFTFSSYSMNWVRQAPGKGLEWVSSISSSSSYIYYADSVKGRFTISRDNAKNSLYLQMNSLRAEDTAVYYCARSGYRGVYGFDYWGQGTLVTVSS
VL: DIQMTQSPSSVSASVGDRVTITCRASQGISSWLAWYQQKPGKAPKLLIYAASSLQSGVPSRFSGSGSGTDFTLTISSLQPEDFATYYCQQYYHSPLTFGQGTKVEIKR
notes: IgG format; also called YY02_LALA

More lines, now with the values behind:

B3: YY03 (IgG format) (antibody, V domains shown)
VH: EVQLLESGGGLVQPGGSLRLSCAASGFTFSSYAISWVRQAPGKGLEWVSAISGSGGSTYYAESVKGRFTISRDNSKNTLYLQMNSLRAEDTAVYYCARESGYVYYLKFDYWGQGTLVTVSS
VL: B2 VL with V11L, G28S, W32Y, A34N, Y91H, Y92V, H93R, S94V, L96I
notes: IgG format; also called YY03_LALA
EC50 (read off the curve) (rNPR1-ANP complex [7]): ~0.2 nM
EC50 (read off the curve) (hNPR1-ANP complex [8]): ~1 nM
binding result [9]: binds
EC50 (read off the curve) [10]: ~2 nM

B4: YY01 (IgG format) (antibody, V domains shown)
VH: EVQLVESGGGLVQPGGSLRLSCAASGFTFSSYWISWVRQAPGKGLEWVANIKQSGSETYYVESVKGRFTISRDNAKNSLYLQMNSLRAEDTAVYYCARSLRRRSTEHAGFDVWGQGTLVTVSS
VL: DIQMTQSPSSLSASVGDRVTITCRASQGISNYLAWYQQKPGKVPKLLIYAASTLQSGVPSRFSGSGSGTDFTLTISSLQPEDVATYYCQQADKFPYTFGQGTKVEIKR
notes: also called YY01_LALA
flow cytometry S/BG at 1 µM IgG [11]: 21 S/BG
flow cytometry S/BG at 1 µM IgG [12]: 35 S/BG
EC50 (read off the curve) [13]: ~0.2 nM
ELISA binding at 1 µM IgG (rNPR1-ANP complex [14]): 50
ELISA binding at 1 µM IgG (hNPR1-ANP complex [15]): 76
ELISA binding at 1 µM IgG [16]: 54
cGMP conc [nM] at 1 µM IgG, +0.075 nM ANP [17]: 14 nM
cGMP conc [nM] at 1 µM IgG, without ANP [17]: 5 nM

B5: YY04 (IgG format) (antibody, V domains shown)
VH: EVQLVESGGGLVKPGGSLRLSCAASGFTFSNYWISWVRQAPGKGLEWVGRIKSKTYGGTTDYAEPVKGRFTISRDDSKNTLYLQMNSLKTEDTAVYYCAREKYSIRARGHGDYGFDVWGQGTLVTVSS
VL: B4 VL with A91G, D92Y, K93H, F94A, Y96F
notes: also called YY04_LALA
flow cytometry S/BG at 1 µM IgG [11]: 33 S/BG
ELISA binding at 1 µM IgG (rNPR1-ANP complex [14]): 54
ELISA binding at 1 µM IgG (hNPR1-ANP complex [15]): 60
EC50 (read off the curve) [18]: ~0.2 nM
